# Laboratory results: US7097990B2, “Method of screening cell death inhibitor” (Astellas Pharma Inc., priority 2001, dated 2006)
# Target: PARP (Cricetulus griseus, UniProt Q9R152)
# Assay: PARP inhibition in transfected CHO dhfr- cells, 3H-NAD incorporation
# Conditions: H2O2 0.06%; cells co-expressing LTRPC2 and PARP-1 dominant negative mutant versus LTRPC2 alone
# Sequence of PARP (Q9R152 2-1013): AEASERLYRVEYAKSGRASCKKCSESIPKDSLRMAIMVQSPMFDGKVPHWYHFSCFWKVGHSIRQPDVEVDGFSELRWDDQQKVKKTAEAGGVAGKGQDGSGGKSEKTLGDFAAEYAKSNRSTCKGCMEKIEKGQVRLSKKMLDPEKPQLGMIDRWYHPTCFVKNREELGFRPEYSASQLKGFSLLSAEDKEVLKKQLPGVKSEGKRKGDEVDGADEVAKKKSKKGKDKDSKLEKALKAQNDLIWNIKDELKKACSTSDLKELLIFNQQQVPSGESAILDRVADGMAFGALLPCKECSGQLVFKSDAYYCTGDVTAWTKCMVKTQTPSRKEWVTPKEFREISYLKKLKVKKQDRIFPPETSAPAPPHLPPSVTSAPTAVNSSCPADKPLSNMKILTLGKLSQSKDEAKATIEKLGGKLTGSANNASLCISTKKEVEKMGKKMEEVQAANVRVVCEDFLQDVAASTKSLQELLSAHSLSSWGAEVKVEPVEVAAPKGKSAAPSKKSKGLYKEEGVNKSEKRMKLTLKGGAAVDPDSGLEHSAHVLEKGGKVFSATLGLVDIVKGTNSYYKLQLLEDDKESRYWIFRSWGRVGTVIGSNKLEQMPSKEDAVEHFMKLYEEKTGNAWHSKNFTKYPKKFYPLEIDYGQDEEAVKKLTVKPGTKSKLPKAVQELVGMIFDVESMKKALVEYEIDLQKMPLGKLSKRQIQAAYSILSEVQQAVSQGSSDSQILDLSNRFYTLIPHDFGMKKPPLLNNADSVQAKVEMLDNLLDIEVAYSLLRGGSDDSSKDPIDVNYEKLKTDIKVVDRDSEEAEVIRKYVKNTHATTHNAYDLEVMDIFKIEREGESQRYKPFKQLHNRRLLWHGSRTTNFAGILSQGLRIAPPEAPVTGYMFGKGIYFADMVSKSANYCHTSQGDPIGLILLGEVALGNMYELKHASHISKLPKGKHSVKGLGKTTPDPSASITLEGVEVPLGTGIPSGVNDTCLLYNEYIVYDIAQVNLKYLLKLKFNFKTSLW
substance,measurement,value
"PARP-1 dominant negative mutant: human PARP-1 DNA binding region (positions 1 to 374), amino acid sequence SEQ ID NO:20, co-expressed in cells",3H radioactivity in comparison with the control cells,67%
